From patent publication US20240317847A1 (Bayer, published 2024)

T1: human IL-11 (human, UniProt P20809 22-199)
T1 construct: bought from Invigate; also called hIL-11; hIL11
T1 sequence: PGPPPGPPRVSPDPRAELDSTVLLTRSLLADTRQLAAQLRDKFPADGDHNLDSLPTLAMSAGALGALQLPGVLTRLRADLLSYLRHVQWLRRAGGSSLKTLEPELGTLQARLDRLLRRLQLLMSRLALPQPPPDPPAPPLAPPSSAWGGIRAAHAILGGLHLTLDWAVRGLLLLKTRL

T2: murine IL-11 (mouse, UniProt P47873 22-199)
T2 construct: bought from Invigate; also called mIL-11; mIL11
T2 sequence: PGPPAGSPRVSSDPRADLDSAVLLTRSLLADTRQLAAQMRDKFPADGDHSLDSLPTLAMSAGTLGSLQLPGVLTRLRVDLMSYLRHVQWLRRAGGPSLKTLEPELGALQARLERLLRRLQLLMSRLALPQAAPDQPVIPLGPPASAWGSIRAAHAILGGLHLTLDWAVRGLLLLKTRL


Key:
human IL-11 = target: T1, human IL-11; test: SPR, antibody captured, IL-11 as analyte
Experimental: (§1) Antibodies were captured via anti-mouse Fc IgGs (“Mouse antibody capture kit, Order No. BR100383, Cytiva) covalently amine coupled to a Series S CM5 sensor chip (Cytiva). The amine coupling was carried out according to the manufacturer's instructions using 1-ethyl-3-(3-dimethylaminopropyl) carbodiimide hydrochloride (EDC), N-hydroxysuccinimide (NHS) and ethanolamine HCl, pH 8.5 (“Amine Coupling Kit” BR-1000-50, Cytiva.). Human IL-11 (Invigate, e.g., lot #C121021-19), and murine IL-11 (Invigate, e.g., lot #C210819-09) were used as analytes. […] Based on that experiment an IL-11 concentration range was chosen to optimally determine kinetics and affinity of anti-IL-11 antibodies in multicycle kinetics mode. The sensor surface was regenerated with glycine pH 1.7 after each antigen injection. Obtained sensorgrams were double referenced (subtraction of reference flow cell signal and buffer injection) and were fitted to a 1:1 Langmuir binding model to derive kinetic data using the Biacore T200 Evaluation software or the Biacore Insight software.
(§2) 42 hits from the IL-11 and […] screening analysis were selected, expressed by transient transfection of mammalian cells and purified as described in Example 15. Antibodies were then tested for human IL-11 and murine IL-11 binding by SPR as described in Example 16.

murine IL-11 = target: T2, murine IL-11; test: SPR, antibody captured, IL-11 as analyte
Experimental: as §1, §2

Row | Binder | Kd (human IL-11) [nM] | Kd (murine IL-11) [nM] | binding result (murine IL-11)
1 | TPP-26330 (antibody, V domains shown, constant regions not restated) VH: EVQLLESGGGLVQPGGSLRLSCAASGFTFSFYGMHWVRQAPGKGLEWVSVISYDGSYKYYADSVKGRFTISRDNSKNTLYLQMNSLRAEDTAVYYCAAGVPDYWGQGTLVTVSS VL: QSVLTQPPSASGTPGQRVTISCTGSSSNIGAGYDVHWYQQLPGTAPKLLIYSNNERPSGVPDRFSGSKSGTSASLAISGLRSEDEADYYCAAWDDSLNGPVFGGGTKLTVL | 9.5 | 1.7 | 
2 | TPP-26329 (antibody, V domains shown, constant regions not restated) VH: EVQLLESGGGLVQPGGSLRLSCAASGFTFSSWGMHWVRQAPGKGLEWVSVISYDGSYKYYADSVKGRFTISRDNSKNTLYLQMNSLRAEDTAVYYCAAGVPDYWGQGTLVTVSS VL: QSVLTQPPSASGTPGQRVTISCTGSSSNIGAGYDVHWYQQLPGTAPKLLIYSNNERPSGVPDRFSGSKSGTSASLAISGLRSEDEADYYCAAWDDSLNGPVFGGGTKLTVL | 14 | 0.92 | 
3 | TPP-26323 (antibody, V domains shown, constant regions not restated) VH: EVQLLESGGGLVQPGGSLRLSCAASGFTFSSYGMHWVRQAPGKGLEWVSVISYDGSYKYYADSVKGRFTISRDNSKNTLYLQMNSLRAEDTAVYYCAAGVPDYWGQGTLVTVSS VL: QSVLTQPPSASGTPGQRVTISCTGSSSNIGAGYDVHWYQQLPGTAPKLLIYSNNERPSGVPDRFSGSKSGTSASLAISGLRSEDEADYYCAAWDGSLNGPVFGGGTKLTVL | 10 | 0.58 | 
4 | TPP-26328 (antibody, V domains shown, constant regions not restated) VH: EVQLLESGGGLVQPGGSLRLSCAASGFTFSSYGMHWVRQAPGKGLEWVSVISYDGSYKYYADSVKGRFTISRDNSKNTLYLQMNSLRAEDTAVYYCAATVPDYWGQGTLVTVSS VL: QSVLTQPPSASGTPGQRVTISCTGSSSNIGAGYDVHWYQQLPGTAPKLLIYSNNERPSGVPDRFSGSKSGTSASLAISGLRSEDEADYYCAAWDDSLNGPVFGGGTKLTVL | 12 | 1.3 | 
5 | TPP-26324 (antibody, V domains shown, constant regions not restated) VH: EVQLLESGGGLVQPGGSLRLSCAASGFTFSSYGMHWVRQAPGKGLEWVSVISYDGSYKYYRDSVKGRFTISRDNSKNTLYLQMNSLRAEDTAVYYCAAGVPDYWGQGTLVTVSS VL: QSVLTQPPSASGTPGQRVTISCTGSSSNIGAGYDVHWYQQLPGTAPKLLIYSNNERPSGVPDRFSGSKSGTSASLAISGLRSEDEADYYCAAWDDSLNGPVFGGGTKLTVL | 13 | 1.2 | 

Continued by falling Kd (human IL-11), values first:

Row | Kd (human IL-11) [nM] | Kd (murine IL-11) [nM] | binding result (murine IL-11) | Binder
6 | 9.3 | 0.94 |  | TPP-26321 (antibody, V domains shown, constant regions not restated) VH: EVQLLESGGGLVQPGGSLRLSCAASGFTFSSYGMHWVRQAPGKGLEWVSVISYDGSYKYYADSVKGRFTISRDNSKNTLYLQMNSLRAEDTAVYYCAAGVPDYWGQGTLVTVSS VL: QSVLTQPPSASGTPGQRVTISCTGSSSNIGAGYDVHWYQQLPGTAPKLLIYSNNERPSGVPDRFSGSKSGTSASLAISGLRSEDEADYYCAAWDLSLNGPVFGGGTKLTVL
7 | 9.3 | 1.2 |  | TPP-26326 (antibody, V domains shown, constant regions not restated) VH: EVQLLESGGGLVQPGGSLRLSCAASGFTFSYYGMHWVRQAPGKGLEWVSVISYDGSYKYYADSVKGRFTISRDNSKNTLYLQMNSLRAEDTAVYYCAAGVPDYWGQGTLVTVSS VL: QSVLTQPPSASGTPGQRVTISCTGSSSNIGAGYDVHWYQQLPGTAPKLLIYSNNERPSGVPDRFSGSKSGTSASLAISGLRSEDEADYYCAAWDDSLNGPVFGGGTKLTVL
8 | 6.4 |  | no binding | TPP-26325 (antibody, V domains shown, constant regions not restated) VH: EVQLLESGGGLVQPGGSLRLSCAASGFTFSWYGMHWVRQAPGKGLEWVSVISYDGSYKYYADSVKGRFTISRDNSKNTLYLQMNSLRAEDTAVYYCAAGVPDYWGQGTLVTVSS VL: QSVLTQPPSASGTPGQRVTISCTGSSSNIGAGYDVHWYQQLPGTAPKLLIYSNNERPSGVPDRFSGSKSGTSASLAISGLRSEDEADYYCAAWDDSLNGPVFGGGTKLTVL
